In article doi:10.1101/467431:

Target: Sca2 full-length passenger domain, construct Sca_(34-1515) (Rickettsia conorii) (UniProt Q92JF7)
Test: ITC

Substance: monomeric actin (LatB-actin) (from UniProt P68135 1-377) (natural protein)
- KD1 (two-site binding model): 0.19 µM
- KD2 (two-site binding model): 0.02 µM
- N of the single site model (called unrealistic): 0.6
- stoichiometry N (actin subunits per Sca (34-1515)): 2
